Test results published in patent US20100285988A1 (Memorial Sloan Kettering, published 2010).
Where no end group is shown, it is not given here. [ ]: non-standard residue; d: D form. Bpa = N[C@@H](Cc1ccc(C(=O)c2ccccc2)cc1)C(=O)O

What was measured:
PEN-2 = target: T1, PEN-2 (human, UniProt Q9NZ42 1-101); experiment: photoaffinity labeling of HeLa membrane, streptavidin capture, western blot
T1 construct: Subunit of the γ-secretase complex in HeLa membrane
Text: (§1) After the photolyzed membranes were solubilized, biotinylated proteins were captured, eluted and analyzed by western blotting with antibodies against biotin, PS1, nicastrin, PEN-2 and APH-1.

APH-1a = target: T2, APH-1a (human, UniProt Q96BI3 1-265, limits assumed); experiment: as above
T2 construct: Subunit of the γ-secretase complex in HeLa membrane
Text: as §1

binding result (PEN-2): no binding (tested: 300 nM)
binding result (APH-1a): no binding (tested: 300 nM)
B1: Aβ17-23BPA^20-biotin (peptide)
peptide: LVF[Bpa]AED-biotin
notes: used at 300 nM; also called biotinylated photoreactive peptide Aβ17-23; photoactive peptide
